Experimental findings from paper doi:10.1101/2023.11.18.567679 (bioRxiv, 2023) are described below.

B1: Tse15 N-terminal clade domain (residue 1-334) (domain or fragment, UniProt A0A5K6CSR3 1-334, looked up)
chain: MAKENTQQKEIKRQPAVELAVFNLNSVTDVADLQMIASQVQLYLQVCGNTTLEQIKSKANITTVANIFALTGSVLDLMLYATDKKTGDAAVQRGALLAANLIGLFSEPNNEAHARMALRPMFGLMAECLYRENGKIKETDIKRLGLHLNAMIAGDLENFLKETQAKLSSLLISATTLGVTILQSMATPATGINAGITTAAGASAEKRDPKLKFTNWAVPLIDLLGKPSQANLTPKIQPNITSRLQQEATQAIAALSQTLQQQANAGQKYTLAWLLQETLKAIQALENKGNASVPINQTGEYERHTKGDTLEFVSLQADALNAPPCEGADSQSGK
B2: Tse15 toxic C-terminal domain (residues 1396-1590) (domain or fragment, UniProt A0A5K6CSR3 1396-1590, looked up)
chain: NSFNYGEMFGIPASAQSGLAYQGQRNYECYAETGELCKIKVPPLFDYVACSGGGLGIGVGFVKNQWTGEYYISGSKDSLLIPVAKSVAQNKQFSAKDLAGASCVGGNIHNIPSYTKTTMTMGEITNEFVSGASVTVGGGAYGAVANVVVPLVSKSSPVKGTWASELGVGTPGFNVGVSGTVSVDTILDAVKPSKK

Experiment [1] addresses T1, Tse15 central Rhs domain (residues 335-1395) (Acinetobacter baumannii (strain …, UniProt A0A5K6CSR3 335-1395)).
T1 sequence (looked up): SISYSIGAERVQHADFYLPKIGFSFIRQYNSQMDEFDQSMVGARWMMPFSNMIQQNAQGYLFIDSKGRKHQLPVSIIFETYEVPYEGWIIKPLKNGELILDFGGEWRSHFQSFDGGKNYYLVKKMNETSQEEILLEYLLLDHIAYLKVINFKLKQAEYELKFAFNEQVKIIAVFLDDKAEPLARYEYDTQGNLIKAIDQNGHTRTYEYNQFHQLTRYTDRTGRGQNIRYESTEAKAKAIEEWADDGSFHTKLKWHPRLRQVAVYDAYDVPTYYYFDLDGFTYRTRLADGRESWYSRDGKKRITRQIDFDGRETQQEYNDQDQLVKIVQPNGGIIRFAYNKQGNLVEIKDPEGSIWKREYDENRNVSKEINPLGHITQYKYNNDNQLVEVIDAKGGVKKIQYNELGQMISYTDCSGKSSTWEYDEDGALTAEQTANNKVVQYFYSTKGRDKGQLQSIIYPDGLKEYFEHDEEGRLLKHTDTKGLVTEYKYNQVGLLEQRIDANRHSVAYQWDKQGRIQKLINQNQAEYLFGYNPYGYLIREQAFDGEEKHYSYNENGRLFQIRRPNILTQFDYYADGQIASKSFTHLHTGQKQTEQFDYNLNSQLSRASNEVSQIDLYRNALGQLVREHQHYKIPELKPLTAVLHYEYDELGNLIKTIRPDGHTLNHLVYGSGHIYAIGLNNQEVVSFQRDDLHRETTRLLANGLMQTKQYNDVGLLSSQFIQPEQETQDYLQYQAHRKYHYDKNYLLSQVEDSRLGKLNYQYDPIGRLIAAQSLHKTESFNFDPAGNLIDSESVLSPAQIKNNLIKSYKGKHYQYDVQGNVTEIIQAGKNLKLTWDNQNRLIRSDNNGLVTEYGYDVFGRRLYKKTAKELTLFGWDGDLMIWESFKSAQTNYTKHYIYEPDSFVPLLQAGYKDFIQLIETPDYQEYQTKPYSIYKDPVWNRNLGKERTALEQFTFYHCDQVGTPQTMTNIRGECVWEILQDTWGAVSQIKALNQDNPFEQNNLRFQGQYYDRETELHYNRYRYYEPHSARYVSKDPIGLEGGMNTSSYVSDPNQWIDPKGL
As to the kind of experiment: SEC. For orientation: In gel filtration, larger molecules generally elute earlier.

In experiment [2] the target is B1. As to the kind of experiment: pull-down.
Experiment [3] has as its target T1, Tse15 central Rhs domain (residues …). The experiment in a line: pull-down.

For B1, the binding result in experiment [1] is recorded as “binds”.
B2: the binding result in experiment [2] and in experiment [3] was “binds” throughout.
